Reference: the DeepSol protein solubility set

Assay: soluble on expression in E. coli; label from the status in PepcDB or PDB records

Sequence	soluble on expression in E. coli
MAGDPMSLKSYSTPTYWQRVKVACQYLFPQLPITRLAGWLAEQKWGMVTHFIIRIFAKQYNVNLAEAEKTNPADYTTFNEFFLRPLKENARPINQDDQAVCLPADGKISELGQINENRLLQAKGHYFTLETLLANDEEMAESFKNGSFITTYLSPRDYHRVHMPCDATLKKMIYVPGDLFSVNSFLAEHIPNLFARNERVICEFETAFGPMVQILVGATITASISTVWAGIINPPRSKDVVEYNYQTTGETAIHLKKGDEMGAFRLGSTVINLFPQATVELVSHLQAGVETRMGERFAKIIKLEHHHHHH	soluble
MSLKNLHPIMLAGTGSDVGKSVIAAALCRIFKQDGYRPAPFKAQNMALNSYATPEGLEIGRAQAVQAEAAGVPCHTDMNPLLLKPSSDHTSQVVLNGRPIGNRNAFEYFRKEGREELRQEVNAAFDRLAARYNPIVMEGAGSISEINLRDTDLVNMPMACYADADVILVADIDRGGVFASVYGSVMLQTPEDKKRIKGVIINKFRGDIRLFESGVKMMEDLCGIPVLGIIPYYRNIHIEEEDSVGLDYKRMQAVEGKINIAVVLLRHLSNFTDFNRLERDERVHLYYTNNTEDLAKADIILLPGSKSTLDDLYELRRNGVAQAVLRAHREGVTVMGICGGYQLMGLEIHDPEGVEGEIRQLPGLGLLPVITTMQGEKVTRQVNFHFLENAETCQGYEIHMGETRPVPGEAVVPLNKLEDGGEDGCFVNQKCMGSYIHGILDNQAFIDYLLEPYAEKLECHTVLDYRTYKEEQYDKLAEHVRSHLNLPLLYQIMSGNEGHHHHHH	soluble
MKLLILGNHTCGNRGDSAILRGLLDAINILNPHTEVDVMSRYPVSSSWLLNRPVMGDPLFLQMKQHNSAAGVVGRVKKVLRRRYQHQVLLSRVTDTGKLRNIAIAQGFTDFVRLLSGYDAIIQVGGSFFVDLYGVPQFEHALCTFMAKKPLFMIGHSVGPFQDEQFNQLANYVFGHCDALILRESVSLDLMKRSNITTAKVEHGVDTAWLVDHHTEDFTASYAVQHWLDVAAQQKTVAITLRELAPFDKRLGTTQQVYEKAFAGVVNRILDEGYQVIALSTCTGIDSYNKDDRMVALNLRQHISDPARYHVVMDELNDLEMGKILGACELTVGTRLHSAIISMNFATPAIAINYEHKSAGVMQQLGLPEMAIDIRHLLDGSLQAMVADTLGQLPALNARLSEAVSRERQTGMQMVQSVLERIGEVK	soluble
SHEVVRDVPAMVVDRSNSTLSREYLRRVDATPEVSIVGHCTDMEEAKEQIRRRNAYGIIYVPEDFSEHLNTGRKAHISLYCDMSGLLYYKSLLIANTLVSLEMNKEIKIARSVGATERQGEIISYPIDYEDVALYNPTV	not soluble
MSLPTEMHHNLGAEKRSAVATTIDSFKERSQKVRALSDPNVRFVPFFGSSEWLRFDGAHPAVLAEKYNRSYRPYLLGQGGAASLNQYFGMQQMLPQLENKQVVYVISPQWFSKNGYDPAAFQQYFNGDQLTSFLKHQSGDQASQYAATRLLQQFPNVAMKDLVQKLASKEELSTADNEMIELLARFNERQASFFGQFSVRGYVNYDKHVAKYLKILPDQFSYQAIEDVVKADAEKNTSNNEMGMENYFYNEQIKKDLKKLKDSQKSFTYLKSPEYNDLQLVLTQFSKSKVNPIFIIPPVNKKWMDYAGLREDMYQQTVQKIRYQLESQGFTNIADFSKDGGEPFFMKDTIHLGWLGWLAFDKAVDPFLSNPTPAPTYHLNERFFSKDWATYDGDVKEFQEGHHHHHH	soluble
MAHHHHHHMFNHDIIKEKDNYKQKIRTLYRNEKEAIKPCNHYDMKEEEKKKSGKIKRSIKLFGTPAVHGLSSHINNNSGTQLYYNFHNVLKRDKEKIQDDNLNYTLERDAGEDNTMQSIHESDKTETQECGKHYLYNKFDIYKSYLSYKKDLIRNEYDQDYKGITTSLLKGKDTHDDNKDNKDNDDNDDNDDNNDHNDHYDITRDDPCDDMCDDMCEDMCDDMCDDMCDDPCDDMCDDPCDDMCDDPCDDMCDDPCDDPYDHPYEEEKYSTYCDKGYLRNFLKNAIIRPNLQTFVGRKIISFLNEKERDIFSLTCKILFFEVYSVSNLKTLYKYQFISNEKRSFIWKAILLEDNTYISEEDYKELRNRKCLYDKAIEKDINRTFPKHPFFINKNMNMQDKLLDILKVCSLYFERIGYCQGMNYIAGILLLVFRKNIDTIRCFISMLKNYNIKGMFSYNFPQLKKIIYQLNLLIKAYIPKLFYYFKRKKIKIDFFCVNWFLTLFSQDLSFENTLKLWDLFFLFGMKILIKLTLILLYYHEDNIIHLSYDEALTYLKAITKTPFIDYLFQDDHFFTHLKKFKITNSMLTQIIMLKKSRQKINLLVKENNGKLRCSIQIKQNNKHTFTSKIKEGFRNLFKLNENYVDYINYFYQKGDGEENNGNQNNGEEYNGKEYNGNQNNGNQNNGKQNNGNQNNGKQNNGNQNNVKQNNGEDTNKNNNNDDINNNICHNNYSSTNFYKNFFQHFNCGNIFNNPNYSNEIVLTNTTCLSVHFNSNVLCNSQNIKNKNTIHSLENIKEEHDHTKNPSNFFLETNTYYDLNLTKSVDGNN	soluble
MRGSHHHHHHTDPLPRLPVPPLQQSLDHYLKALQPIVSEEEWAHTKQLVDEFQASGGVGERLQKGLERRARKTENWLSEWWLKTAYLQYRQPVVIYSSPGVMLPKQDFVDLQGQLRFAAKLIEGVLDFKVMIDNETLPVEYLGGKPLCMNQYYQILSSCRVPGPKQDTVSNFSKTKKPPTHITVVHNYQFFELDVYHSDGTPLTADQIFVQLEKIWNSSLQTNKEPVGILTSNHRNSWAKAYNTLIKDKVNRDSVRSIQKSIFTVCLDATMPRVSEDVYRSHVAGQMLHGGGSRLNSGNRWFDKTLQFIVAEDGSCGLVYEHAAAEGPPIVTLLDYVIEYTKKPELVRSPMVPLPMPKKLRFNITPEIKSDIEKAKQNLSIMIQDLDITVMVFHHFGKDFPKSEKLSPDAFIQMALQLAYYRIYGQACATYESASLRMFHLGRTDTIRSASMDSLTFVKAMDDSSVTEHQKVELLRKAVQAHRGYTDRAIRGEAFDRHLLGLKLQAIEDLVSTPDIFMDTSYAIAMHFHLSTSQVPAKTDCVMFFGPVVPDGYGVCYNPMEAHINFSLSAYNSCAETNAARLAHYLEKALLDMRALLQSHPRAKLISEEDLSLISG	soluble
MSLATQAVSLARVRGPLALAALTLLGACSTRTAVPTPAPVAGSPSVAPESPRPPEVASGYRTGMTTAYAEQHMAAAANPLAAEAGRRILRQGGSAIDAAIAMQAVLTLVEPQASGIGGGAFLLYWDGKRVQAYDGWETAPAGADENLFLRPDGTSMGLSEARIGGRAVGVPGVLRALELAHRRYGKLPWTRLLQPAVELAEQGFPVSPRLYTQIAADPFIAGSPEMAAYFLTPQGKPKPVGTIVRNPQLAQTLREIARHGPGAFYAGPIAADIVKRVSGGANPGTLSLADLRGYRAKERDPICADYQRWKVCGMPPPSSGGIAIAQMLGTLQALAARDPKYALAAMAPRETTRAAGLEPSVDAVHVVSEAGRQADADRGLYVADADFVPVNVKGLTDPGYLTLRAGLIGDRSTGRADPGTPPGTSIALAPDRSPPRVSTSQIVAVDNAGGAVSMTTAIDSDFGAHLMVRGFVLNSGLTDFSFVPNDGGKPVANRVQAGKRPRSSMAPTLVFERDSGRLVAALGSPGGSQSIEYVSKTLIGLLDWDMDVQSAINLPNFGSRNGPTEVERGLVTQPLVQGLKARGHDVAQIEMTSGTQAIVRRRRDDGRWGWAGGADPRREGVALGDEGHHHHHH	not soluble
MGSDKIHHHHHHMSTNTTSHSTTHSTISSQAVVIKQADFIESIADSLQYISYYHPKDFVDAMTKAYEREESAAAKDAIAQILINSRMSAEGKRPLCQDTGIVTTFVKIGMSVQWDKTDMTVQEMVDEGVRRAYTNPDNPLRASIVSDPAGARKNTKDNTPSVVHIDMVAGNQIEVMIAAKGGGSENKSKMAMLNPSDDIAAWVEKTLPTMGAGWCPPGMLGIGIGGTAEKAAVLAKESLMDPVDIHELMARGAETTEEKLRLDIFERANNLGIGAQGLGGLTTVLDVKIKSVPTHAASKPVVMIPNCAATRHVHFHLDGTGPVDLVPPSLSDWPEITREAGENTHRVNLDTVTQAEIETWKSGDTLLLNGKMLTGRDAAHKRIQMLLESGEGLPAGVDFTGKFIYYVGPVDPVGDEVVGPAGPTTATRMDKFTDMMLDQTGLMGMIGKSERGPETVASIKKHKAVYLMAVGGAAYLVSKAIKKSRVVAFEDLGMEAIYEFDVQDMPVTVAVDTNGVNAHETGPAIWKINIANSKANK	not soluble
MFPYYQRQCPTGSVPYTIKAGDTLAAIARIYGTTVQDIINANPDIDPYYLRVGQQICIPLTMQIYPSCPTTNYYVVRPEDTLESIAAYFNITPQQLLYSNYGIDPTDLYVDQILCIPVAPPPVTVNVNVAERTLTVYRDGRIYRTYRIALENPASPIPRGTFTVLNKQVDPGVEMGARWIGLSEAGFGIHGTNTPEFIDVVSTGNSIVMSNEDVSELFNLVPVGTIVTIS	soluble
MRIFLNTVHLFALCAAAAIATEESTTPKPASWKFGTIAGEPDDYTNSTAVQVNNFKECIAKCSAIFDCIIASQKSKSEPCNLFLWNSVTKVKRAESGGEGQTAFRVFTEQPRCKLSMDELLNGKKYQIYKNDTEHYIWTINKTEDGWAMEYSKTILNNIIHCNDPDAYKYPGVRGCYKIVLPFKEDKKWESGMLSYPEAVGNCTLLGGDGLMTIPSSDFASQIKQNQNSTQSSTVYFIGLTRPDDSSNDNWVWTLPDLKIDSSPLPPWSFPPSLNVEAIWAENCALVSIEADPTKSLLHATLCQQWNRMSGYICHFAQ	not soluble
MTPILTDRPALARHRTRACRAPALFLHEEAAREVEERLSEVNRRFTAPAVVTAFPEVWRDRLPNARIVTDAEELALDPGAHDLVIHALAMHWSNDPVGQLVQSRRALRPDGLFLGLLFGGRTLSELRIALAEAEAAVTGGLSPRVLPMAEIRDLGALLQRAGFALPVADSLVREVRYRDTLHLMRDLRAMGETNALEARLRRPSRRALFAEAEARYPRRADDRIVASFEIICLTGWAPHESQQKPLRPGSAARSLAEALAAARKDGPGDG	not soluble
GLVPRGSHMTGRMLTLDGNPAANWLNNARTKWSASRADVVLSYQQNNGGWPKNLDYNSVGNGGGGNESGTIDNGATITEMVFLAEVYKSGGNTKYRDAVRKAANFLVNSQYSTGALPQFYPLKGGYSDHATFNDNGMAYALTVLDFAANKRAPFDTDVFSDNDRTRFKTAVTKGTDYILKAQWKQNGVLTVWCAQHGALDYQPKKARAYELESLSGSESVGVLAFLMTQPQTAEIEQAVRAGVAWFNSPRTYLEGYTYDSSLAATNPIVPRAGSKMWYRFYDLNTNRGFFSDRDGSKFYDITQMSLERRTGYSWGGNYGTSIINFAQKVGYL	soluble
MVKITNNVHQFGYEPAEFLSKKLTFTDIVHPEDLDRIVKEMVAFLKNDIVYFEQDYRIFTKGGDIRWVYEKTILKTDDTGLPTLAKGYLLDITER	not soluble
MGSDKIHHHHHHMENIAQWVGIDVSKATLDVYIRPLGKAMIVANTESEISNLVKLLLSYSLNLIVLEATGGLETELVIQLQAALLPVALINPRQGRDFAKATGKLAKTDAIDAQILAHFGEAMKPQVLAIQSETARQLSELISRRRQLVEMQTAEKNRRSLTRGQALADIEAHIEYLEEHLKQLNQKIAELTQNNLQWIDKVNLLKSTPGIGQVISTTLVSDLPELGQLTAKQISRLVGVAPINHDSGQHKGKRMINGGRAHVRATLYMGAVVAMVHNPVIKAFYERLIERGKSKKLALTACVHKMLVILNAMVRDNLPWRVTENLQPIANA	not soluble
